± gives the standard error. Variants at the floor of the assay were thinned out.
B1: glmS ribozyme (parent)
chain: AUAAAAGCGCCAGAACUACAGAAAUGUAGUUGACGAGGAGGAGGUUUAUCGAAUUUUCGGCGGAUGCCUCCAAA

Columns and labels:
Details in all cases: with glucosamine-6-phosphate
glucosamine-6-phosphate [1] = variants of: B1; assay: self-cleavage kobs at 160 uM GlcN6P; higher = faster cleavage; RNA array
How it was run: (§1)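 Tiles bearing barcoded ribozyme variants, transcribed in situ by E. coli RNA polymerase on sequenced MiSeq chips, were imaged over ~14 h at 37 °C using a hybridised Cy3 probe. Glucosamine-6-phosphate was supplied at 40 μM to 10 mM in HEPES/KCl/Mg(OAc)2 buffer. kobs came from one- or two-exponential decay fits to normalised per-tile medians, and weighted Michaelis–Menten fits then provided kcat and KM.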

glucosamine-6-phosphate [2] = variants of: B1; assay: self-cleavage kobs at 640 uM GlcN6P; higher = faster cleavage; RNA array
How it was run: as §1

glucosamine-6-phosphate [3] = variants of: B1; assay: self-cleavage kobs at 2500 uM GlcN6P; higher = faster cleavage; RNA array
How it was run: as §1

glucosamine-6-phosphate [4] = variants of: B1; assay: self-cleavage kobs at 10000 uM GlcN6P; higher = faster cleavage; RNA array
How it was run: as §1

Row | Variant | self-cleavage kobs at 160 uM GlcN6P (glucosamine-6-phosphate [1]) | self-cleavage kobs at 640 uM GlcN6P (glucosamine-6-phosphate [2]) | self-cleavage kobs at 2500 uM GlcN6P (glucosamine-6-phosphate [3]) | self-cleavage kobs at 10000 uM GlcN6P (glucosamine-6-phosphate [4])
1 | A36U G63U | < 1e-05 s⁻¹ | < 1e-05 s⁻¹ | < 1e-05 s⁻¹ | 
2 | A42C C50U | < 1e-05 s⁻¹ | < 1e-05 s⁻¹ | < 1e-05 s⁻¹ | < 1e-05 s⁻¹
3 | G60U G63C C70G | < 1e-05 s⁻¹ | < 1e-05 s⁻¹ |  | 
4 | G9C C10U G13U |  | < 1e-05 s⁻¹ |  | 
5 | A6U G13A C71A |  | < 1e-05 s⁻¹ |  | 
6 | A53G C58A C68G | 0.000121 ± 4.6e-05 s⁻¹ |  | 0.000107 ± 2.5e-05 s⁻¹ | 
7 | G37C C71G | < 1e-05 s⁻¹ |  |  | < 1e-05 s⁻¹
8 | A6U G29U A52C |  | < 1e-05 s⁻¹ |  | 
9 | G44U C50A | < 1e-05 s⁻¹ | < 1e-05 s⁻¹ | < 1e-05 s⁻¹ | < 1e-05 s⁻¹
10 | U47A G63U | < 1e-05 s⁻¹ | < 1e-05 s⁻¹ | < 1e-05 s⁻¹ | < 1e-05 s⁻¹
11 | C8A A33U U55G |  | < 1e-05 s⁻¹ |  | < 1e-05 s⁻¹
12 | G9C C16G G38U U65A |  | < 1e-05 s⁻¹ | < 1e-05 s⁻¹ | 
13 | C8U U45A A48U C50U |  | < 1e-05 s⁻¹ | < 1e-05 s⁻¹ | 
14 | U46G G60C A64U | < 1e-05 s⁻¹ |  | < 1e-05 s⁻¹ | < 1e-05 s⁻¹
15 | G43C G60C C68U | < 1e-05 s⁻¹ | < 1e-05 s⁻¹ |  | 
16 | C8U U47C C67G |  | < 1e-05 s⁻¹ |  | 
17 | G7C U31C G40C |  | < 1e-05 s⁻¹ | < 1e-05 s⁻¹ | 
18 | G7A C11A C34U A36C U45A |  | < 1e-05 s⁻¹ | < 1e-05 s⁻¹ | < 1e-05 s⁻¹
19 | U47G C50A A64G U69G | 0.000158 ± 4.6e-05 s⁻¹ | 0.000155 ± 3.9e-05 s⁻¹ | 0.000142 ± 3.1e-05 s⁻¹ | 3.49e-05 ± 1.6e-05 s⁻¹

Row | Variant | self-cleavage kobs at 160 uM GlcN6P (glucosamine-6-phosphate [1]) | self-cleavage kobs at 640 uM GlcN6P (glucosamine-6-phosphate [2]) | self-cleavage kobs at 2500 uM GlcN6P (glucosamine-6-phosphate [3]) | self-cleavage kobs at 10000 uM GlcN6P (glucosamine-6-phosphate [4])
20 | C8G A42C U47A |  | < 1e-05 s⁻¹ | < 1e-05 s⁻¹ | 
21 | U46C A53G U54C | 0.000138 ± 2.9e-05 s⁻¹ | 0.000673 ± 0.00011 s⁻¹ | 0.00116 ± 0.00021 s⁻¹ | 
22 | G40C A42G A53C | 5.62e-05 ± 1.9e-05 s⁻¹ | 0.00018 ± 6.6e-05 s⁻¹ | 0.000564 ± 0.00013 s⁻¹ | 
23 | A6U G7C G13U A36C |  | < 1e-05 s⁻¹ |  | 
24 | C8U A36C A48G U49C |  | < 1e-05 s⁻¹ | < 1e-05 s⁻¹ | 
25 | A39G A42U A64C | < 1e-05 s⁻¹ | < 1e-05 s⁻¹ | < 1e-05 s⁻¹ | 
26 | A6C G9U A52G |  | < 1e-05 s⁻¹ |  | < 1e-05 s⁻¹
27 | G7C A48C C70A |  | < 1e-05 s⁻¹ |  | 
28 | A6U A36C G51C |  | < 1e-05 s⁻¹ | < 1e-05 s⁻¹ | 
29 | G7U A53U U65G |  | < 1e-05 s⁻¹ | < 1e-05 s⁻¹ | 
30 | C8U G13U U47C G51C |  | < 1e-05 s⁻¹ |  | 
31 | C8A G32U U45G A48G C71A |  | < 1e-05 s⁻¹ |  | 
32 | G38C A64G | < 1e-05 s⁻¹ | < 1e-05 s⁻¹ |  | 
33 | A39C G41U U46G | < 1e-05 s⁻¹ |  |  | 
34 | U45C C61A | < 1e-05 s⁻¹ |  | < 1e-05 s⁻¹ | < 1e-05 s⁻¹
35 | C8A C16A G32C A42G |  | < 1e-05 s⁻¹ |  | 
36 | A6C G9C G32A C50U A53G |  | < 1e-05 s⁻¹ | < 1e-05 s⁻¹ | 
37 | G43C C71G | < 1e-05 s⁻¹ | < 1e-05 s⁻¹ | < 1e-05 s⁻¹ | 
38 | C8A A36G A42U A53G |  | < 1e-05 s⁻¹ | < 1e-05 s⁻¹ | 

Row | Variant | self-cleavage kobs at 160 uM GlcN6P (glucosamine-6-phosphate [1]) | self-cleavage kobs at 640 uM GlcN6P (glucosamine-6-phosphate [2]) | self-cleavage kobs at 2500 uM GlcN6P (glucosamine-6-phosphate [3]) | self-cleavage kobs at 10000 uM GlcN6P (glucosamine-6-phosphate [4])
39 | C8U U54C U55G |  | < 1e-05 s⁻¹ |  | 
40 | G9A G37A U56G |  | < 1e-05 s⁻¹ |  | 
41 | G40U C61G | < 1e-05 s⁻¹ | < 1e-05 s⁻¹ |  | < 1e-05 s⁻¹
42 | G7C A12G U46G U47A |  | < 1e-05 s⁻¹ |  | 
43 | G7C A12U A15C |  | < 1e-05 s⁻¹ |  | 
44 | G37A G59A G62A | < 1e-05 s⁻¹ |  |  | 
45 | G43U U47G U65C | < 1e-05 s⁻¹ |  | < 1e-05 s⁻¹ | 
46 | C50A G51C U55C G60U | < 1e-05 s⁻¹ |  |  | < 1e-05 s⁻¹
47 | C67G C68A | 7.05e-05 ± 2.1e-05 s⁻¹ | 3.85e-05 ± 1.1e-05 s⁻¹ | 2.05e-05 ± 7.5e-06 s⁻¹ | 
48 | C8G A33C U55G G62U C67A |  | < 1e-05 s⁻¹ | < 1e-05 s⁻¹ | 
49 | G7U C70A |  | 0.000596 ± 0.00023 s⁻¹ |  | 
50 | G9C A15G G38C G60A |  | < 1e-05 s⁻¹ | < 1e-05 s⁻¹ | 
51 | C8U C10U A14U G43A |  | < 1e-05 s⁻¹ | < 1e-05 s⁻¹ | 
52 | G59C G62A | < 1e-05 s⁻¹ | < 1e-05 s⁻¹ | < 1e-05 s⁻¹ | 
53 | A6C G37U U49A |  | < 1e-05 s⁻¹ |  | < 1e-05 s⁻¹
54 | C8A U54C A64C |  | < 1e-05 s⁻¹ | < 1e-05 s⁻¹ | 
55 | C8G A14U U49G A53U C61U |  | < 1e-05 s⁻¹ |  | 
56 | A48G U57A | < 1e-05 s⁻¹ | < 1e-05 s⁻¹ | < 1e-05 s⁻¹ | 

Reference: the supplement of paper PMC7125110
